From patent US20220054588A1, “USE OF SAP FOR THE TREATMENT OF EUROTIOMYCETES FUNGI INFECTIONS” (HUMANITAS MIRASOLE S.P.A., priority 2018, published 2022)

Assays:
A. fumigatus [1] = assay: Inflammatory response in BALFs after i.t. injection of Sap-opsonised conidia; format: in vivo; details: Apcs−/− mice, 16 h
Experimental: (§1) FIG. 5 depicts the rescue of susceptibility to A. fumigatus in SAP-deficient mice. a) b) c) d) i.t. injection of non-opsonised or Sap-opsonised AF conidia. a) survival of wt and Apcs^−/− mice. Wt, n=10; wt+Sap, n=10; Apcs^−/−, n=14; Apcs^−/−+Sap, n=13.****, P<0.0001, wt vs. Apcs^−/− or Apcs^−/− vs. Apcs^−/−+Sap (Mantel-Cox test). b) and c) levels of TNF-α (b) and MPO (c) in BALFs of mice (16 h). b),****, P<0.0001;**, P<0.01. c),***, P<0.0005. d, FACS analysis of neutrophil recruitment in lung (16 h). Mean±SEM.****, P<0.0001;*, P<0.05. b), c), d), Mean±SEM; Mann-Whitney test.
BALFs collection and analysis. BALFs were performed with 1.5 ml PBS, pH 7.4, containing protease inhibitors (Complete tablets, Roche Diagnostic; PMSF, Sigma-Aldrich) and 10 mM EDTA (Sigma-Aldrich) with a 22-gauge venous catheter. BALFs were centrifuged, and supernatants were collected for quantification of total protein content with Bradford's assay (Bio-RAD) and cytokines as described below. After erythrocyte lysis with ACK solution (pH 7.2; NH4Cl 0.15 M, KHCO3 10 mM, EDTA 0.1 mM), cells were resuspended in PBS, pH 7.4, containing 10 mM EDTA and 1% heat-inactivated fetal bovine serum (FCS; Sigma-Aldrich), stained with live and death dye (ThermoFisher Scientific-Molecular Probes) and analysed by BD FACS Canto™ II Flow Cytometer (BD Biosciences) with the following specific antibodies: peridinin chlorophyll protein complex (PerCP)—or brilliant violet (BV) 650-labelled anti-CD45 (#30-F11, IgG2b; 4 μg/ml); FITC- or phycoerythrin (PE)-CF594-labelled anti-Ly6G (#1A8, IgG2a; 4 μg/ml); allophycocyanin (APC)—or BV421-labelled anti-CD11b (#M 1/70, RUO, IgG2b; 1 μg/ml) (all from BD Biosciences).
Proteins. A recombinant murine SAP from mouse myeloma cell line NSO was used (R&D Systems). Native SAP from human serum was purchased by Merck-Millipore. […] Purity of the recombinant protein was assessed by SDS-PAGE followed by silver staining. […] SAP levels were measured in mouse plasma by ELISA (DuoSet ELISA; R&D Systems). Murine TNF-α, CCL2, MPO were measured by ELISA (DuoSet ELISA; R&D Systems). […]

A. fumigatus [2] = assay: Rescue experiment: survival after i.t. injection of Sap-opsonised A. fumigatus conidia; format: in vivo, mice; details: 5×10^7 i.t.
Experimental: as §1
The growth and culture conditions of A. fumigatus and A. Flavus conidia were as described (Garlanda et al., 2002). For intratracheal (i.t.) injection, mice were anesthetized by i.p. injection of ketamine (100 mg/Kg; i.p.) and xylazine (10 mg/Kg i.p.). After surgical exposure, a volume of 50 μl PBS^2+, pH 7.4, containing 1×10^8 or 5×10^7 resting conidia (>95% viable, as determined by serial dilution and plating of the inoculum on Sabouraud dextrose agar) were delivered into trachea under direct vision using a catheter connected to the outlet of a micro-syringe (Terumo, Belgium). Survival to infection was daily monitored for 10d later. Dying mice were euthanized after evaluation of the following clinical parameters: body temperature dropping, intermittent respiration, solitude presence, sphere posture, fur erection, non-responsive alertness, and inability to ascent when induced.
In experiments of in vivo phagocytosis, mice were i.t. injected with 5×10^7 heat inactivated fluorescein isothiocyanate (FITC)-labelled conidia and euthanized 4 h later. In rescue experiments, conidia (1×10^9) were opsonized with murine recombinant SAP (50 μg/ml; R&D Systems) for 1 h at r.t. in PBS, pH 7.4, containing 0.01% (vol/vol) Tween-20® (Merck-Millipore). After washing of unbound protein, a volume of 50 μl (5×10^7 conidia) was i.t. injected.

B1: recombinant murine SAP: recombinant murine SAP from mouse myeloma cell line NSO (R&D Systems) (protein, UniProt P12246 21-224, looked up)
Serum amyloid P-component: QTDLKRKVFVFPRESETDHVKLIPHLEKPLQNFTLCFRTYSDLSRSQSLFSYSVKGRDNELLIYKEKVGEYSLYIGQSKVTVRGMEEYLSPVHLCTTWESSSGIVEFWVNGKPWVKKSLQREYTVKAPPSIVLGQEQDNYGGGFQRSQSFVGEFSDLYMWDYVLTPQDILFVYRDSPVNPNILNWQALNYEINGYVVIRPRVWD
MPO level in BALFs (A. fumigatus [1]): normalized | TNF-α level in BALFs (A. fumigatus [1]): normalized | neutrophil number in BALFs (A. fumigatus [1]): normalized | MST (A. fumigatus [2]; Apcs−/− mice): > 10 days | mice that resisted infection (survival) (A. fumigatus [2]; Apcs−/− mice): 69% | MST (A. fumigatus [2]; wt mice): > 10 | survival (A. fumigatus [2]; wt mice): 70%
